Target: secCl (CG7589), Cys-loop ligand-gated ion channel subunit (Drosophila melanogaster)

- shift in reversal potential in low chloride buffer, Xenopus oocytes co-expressing secCl and CG6927: 53 mV
Substance: CG6927, Cys-loop ligand-gated ion channel subunit (natural protein)

From paper PMC6522505
